From paper PMC4803054 (Genes & Development, 2016)

T1: Mte1 (GST tag cleaved off) (S. cerevisiae, UniProt P53227 1-271)
T1 sequence (looked up): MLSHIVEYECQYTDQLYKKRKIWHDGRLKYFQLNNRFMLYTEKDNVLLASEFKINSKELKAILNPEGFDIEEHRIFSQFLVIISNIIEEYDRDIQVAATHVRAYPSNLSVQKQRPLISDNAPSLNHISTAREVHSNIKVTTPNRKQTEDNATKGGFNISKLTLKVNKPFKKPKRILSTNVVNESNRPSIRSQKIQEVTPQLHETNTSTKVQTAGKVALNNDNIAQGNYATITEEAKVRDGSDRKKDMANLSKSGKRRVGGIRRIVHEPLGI

B1: GST-Mte1 fragment 201-271 (domain or fragment)
chain: LHETNTSTKVQTAGKVALNNDNIAQGNYATITEEAKVRDGSDRKKDMANLSKSGKRRVGGIRRIVHEPLGI
B2: MBP-tagged Mph1(754–993) (domain or fragment, S. cerevisiae, UniProt P40562 754-993, looked up)
chain: SNENPSKKRKIFKALDNLENDSTEEASSSLETEDEEVSDDNNVFIAEGQNGCQKDLETAIIRTGESLTTLKPLHNFERPNMALFVNDCGLPTKIEKNVKDIRGNQHNLEKEKSCTVDKNNMVLSLDDWNFFRNRYIPEGVSFDVEPNFVQYTKGVKVPHCHKVSKIITLFNDESNDNKKRTIDMNYTKCLARGMLRDEKKFVKVNDKSQVDNNSVNHDSSQSFTLSNAELDDILGSDSDF

Legend:
Assay in all cases: pull-down
Mph1-MHF complex = Mph1-MHF complex (S. cerevisiae, UniProt P40562 1-993; Q3E835 1-90; Q3E829 1-80)
[1] = molecular target: T1, Mte1 (GST tag cleaved off)
MHF complex (Mhf1-Mhf2) = MHF complex (Mhf1-Mhf2) (S. cerevisiae, UniProt Q3E835 1-90; Q3E829 1-80)

Row | Binder | binding result (Mph1-MHF complex) | binding result [1] | binding result (MHF complex (Mhf1-Mhf2))
1 | B1 | binds | – | –
2 | B2 | – | binds | binds
